Results from patent US20170266311A1 (published 2017).

T1: human NaPi2b (sodium-dependent phosphate transport protein 2B, SLC34A2) (human, UniProt O95436 1-690)
T1 construct: also called NaPiIIb; Npt2
T1 sequence: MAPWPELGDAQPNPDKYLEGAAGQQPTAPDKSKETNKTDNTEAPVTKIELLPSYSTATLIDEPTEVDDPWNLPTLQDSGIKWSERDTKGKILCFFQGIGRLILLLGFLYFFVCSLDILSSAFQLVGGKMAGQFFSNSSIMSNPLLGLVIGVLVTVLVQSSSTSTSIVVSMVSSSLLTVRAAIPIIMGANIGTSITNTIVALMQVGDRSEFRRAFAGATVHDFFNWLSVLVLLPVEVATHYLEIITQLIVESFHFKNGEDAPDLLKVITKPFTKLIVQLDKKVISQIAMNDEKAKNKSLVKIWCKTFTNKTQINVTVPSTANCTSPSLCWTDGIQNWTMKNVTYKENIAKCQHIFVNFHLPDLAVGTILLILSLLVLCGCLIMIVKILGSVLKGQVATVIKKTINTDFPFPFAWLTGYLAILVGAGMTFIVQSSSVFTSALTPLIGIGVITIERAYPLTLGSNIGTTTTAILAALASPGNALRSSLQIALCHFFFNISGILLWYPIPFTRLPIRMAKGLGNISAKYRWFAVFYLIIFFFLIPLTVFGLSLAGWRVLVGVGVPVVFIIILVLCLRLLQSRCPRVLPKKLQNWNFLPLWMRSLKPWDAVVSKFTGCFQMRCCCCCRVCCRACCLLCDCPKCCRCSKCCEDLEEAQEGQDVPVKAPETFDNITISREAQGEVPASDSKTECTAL

B1: XMT 1535 antibody (antibody, human IgG1, kappa, V domains shown)
VH: QVQLVQSGAEVVKPGASVKMSCKASGYTFTGYNIHWVKQAPGQGLEWIGAIYPGNGDTSYKQKFRGRATLTADTSTSTVYMELSSLRSEDSAVYYCARGETARATFAYWGQGTLVTVSS
VL: DIQMTQSPSSLSASVGDRVTITCSASQDIGNFLNWYQQKPGKTVKVLIYYTSSLYSGVPSRFSGSGSGTDYTLTISSLQPEDFATYYCQQYSKLPLTFGQGTKLELKR
notes: Full IgG1
B2: Example 1C, XMT 1535-(EG2-MI-(10 kDa PHF-BA-(AF-HPA-Ala))) (antibody, human IgG1, kappa, V domains shown)
VH: B1 VH
VL: B1 VL
modifications: EG2-MI-(10 kDa PHF-BA-(AF-HPA-Ala)) polymer-drug scaffolds attached by maleimide to cysteines of the partially reduced antibody; positions and chain not stated; DAR about 11:1 to about 15:1

How the values were obtained:
[1] = target: T1, human NaPi2b (sodium-dependent …); experiment: flow cytometry on OVCAR3 cells, Alexa Fluor 647 goat anti-human IgG detection, one site specific binding fit
Method: (§1) TOV-21G or OVCAR3 cells were grown overnight to approximately 90% confluent cultures in media, then were released from the plate surface by treatment with Trypsin-EDTA (Gibco-Thermo Fisher Scientific, USA). The detached cells were washed once with ice cold media containing 6% goat serum and resuspended in the same media. 50,000 cells were aliquoted per well of a V-bottom, 96-well plate and incubated with a range of test articles concentrations (0.23-500 nM) in 100 μl Media (1:1 mixture MCDB105 (1.5 g/L sodium bicarbonate) and Medium 199 (2.2 g/L sodium bicarbonate plus 15% FBS)) with 6% goat serum on ice for 3 hours. The cells were then washed once with ice cold PBS and resuspended in 150 μl Media with 2% goat serum and 6 μg/ml of a secondary fluorescently labeled antibody, Alexa Fluor® 647-labelled goat anti-human IgG (Life Technologies, Cat# A-21445) for 1 hour on ice. The cells were washed once with ice cold PBS and suspended in 150 μl of ice cold PBS with 1% paraformaldehyde. The amount of fluorescence bound per cell was determined by running 5000 cells for each treatment on a MACSQuant flow cytometer (Miltenyi Biotec, Bergisch Gladbach, Germany). The median fluorescence value for each treatment was graphed, and the binding constant, KD was calculated for each test article with GraphPad Prism software by non-linear regression using the one site specific binding model.

[2] = target: T1, human NaPi2b (sodium-dependent …); experiment: flow cytometry on TOV-21G cells, Alexa Fluor 647 goat anti-human IgG detection, one site specific binding fit
Method: as §1

Binder | Kd [1] [nM] | Kd [2] [nM]
B1 | 6.59 | 2.46
B2 | 3.84 | 3.97
